Where two headings read alike, the source gives them in different places.

Assay in all cases: EMSA
Series [1] addresses T1, RAD52 full-length (Homo sapiens, UniProt P43351 1-418).
T1 sequence: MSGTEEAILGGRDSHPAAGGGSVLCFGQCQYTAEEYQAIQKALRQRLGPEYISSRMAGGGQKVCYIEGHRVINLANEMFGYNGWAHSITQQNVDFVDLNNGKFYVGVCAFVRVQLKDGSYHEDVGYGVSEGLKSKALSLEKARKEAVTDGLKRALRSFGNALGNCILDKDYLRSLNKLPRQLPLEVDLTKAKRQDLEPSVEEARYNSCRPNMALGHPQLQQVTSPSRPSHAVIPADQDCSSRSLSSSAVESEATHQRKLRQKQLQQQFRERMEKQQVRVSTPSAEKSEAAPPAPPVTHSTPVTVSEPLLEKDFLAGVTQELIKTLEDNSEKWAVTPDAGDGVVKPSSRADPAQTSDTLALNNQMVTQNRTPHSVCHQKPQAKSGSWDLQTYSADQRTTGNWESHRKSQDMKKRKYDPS

For series [2], the target named is T1, RAD52 full-length. This is another data set of the same source.
Series [3] has as its target T1, RAD52 full-length. This is another data set of the same source.
In series [4] the target is T1, RAD52 full-length. This is another data set of the same source.

B1: ISE#1 40-mer ssDNA (ssDNA)
DNA: ACAGCACCAGATTCAGCAATTAAGCTCTAAGCCATCCGCA
As for B1, in the series with RAD52 full-length [1], the binding result was “binds”.

B2: CA#1 40-mer ssRNA (ssRNA)
RNA: AAUACCGCAUCAGGAAAUUGUAAGCGUUAAUAUUUUGUUA
Turning to B2, in the series with RAD52 full-length [2], the binding result is on record as “binds”.

B3: ISE#3 40-mer ssRNA (ssRNA)
RNA: UGCGGAUGGCUUAGAGCUUAAUUGCUGAAUCUGGUGCUGU
Regarding B3, in the series with RAD52 full-length [3], the binding result is “binds”.

B4: ISE#4 40-mer ssDNA (ssDNA)
DNA: TGCGGATGGCTTAGAGCTTAATTGCTGAATCTGGTGCTGT
With B4, the binding result with RAD52 full-length [4] is “binds”.

Values taken from paper PMC10312132.
